Measured values taken from publication PMC4790104 (Analytical chemistry, 2016).

T1: Ski2 (S. cerevisiae (endogenous in budding …, UniProt P35207 1-1287))
T1 sequence (looked up): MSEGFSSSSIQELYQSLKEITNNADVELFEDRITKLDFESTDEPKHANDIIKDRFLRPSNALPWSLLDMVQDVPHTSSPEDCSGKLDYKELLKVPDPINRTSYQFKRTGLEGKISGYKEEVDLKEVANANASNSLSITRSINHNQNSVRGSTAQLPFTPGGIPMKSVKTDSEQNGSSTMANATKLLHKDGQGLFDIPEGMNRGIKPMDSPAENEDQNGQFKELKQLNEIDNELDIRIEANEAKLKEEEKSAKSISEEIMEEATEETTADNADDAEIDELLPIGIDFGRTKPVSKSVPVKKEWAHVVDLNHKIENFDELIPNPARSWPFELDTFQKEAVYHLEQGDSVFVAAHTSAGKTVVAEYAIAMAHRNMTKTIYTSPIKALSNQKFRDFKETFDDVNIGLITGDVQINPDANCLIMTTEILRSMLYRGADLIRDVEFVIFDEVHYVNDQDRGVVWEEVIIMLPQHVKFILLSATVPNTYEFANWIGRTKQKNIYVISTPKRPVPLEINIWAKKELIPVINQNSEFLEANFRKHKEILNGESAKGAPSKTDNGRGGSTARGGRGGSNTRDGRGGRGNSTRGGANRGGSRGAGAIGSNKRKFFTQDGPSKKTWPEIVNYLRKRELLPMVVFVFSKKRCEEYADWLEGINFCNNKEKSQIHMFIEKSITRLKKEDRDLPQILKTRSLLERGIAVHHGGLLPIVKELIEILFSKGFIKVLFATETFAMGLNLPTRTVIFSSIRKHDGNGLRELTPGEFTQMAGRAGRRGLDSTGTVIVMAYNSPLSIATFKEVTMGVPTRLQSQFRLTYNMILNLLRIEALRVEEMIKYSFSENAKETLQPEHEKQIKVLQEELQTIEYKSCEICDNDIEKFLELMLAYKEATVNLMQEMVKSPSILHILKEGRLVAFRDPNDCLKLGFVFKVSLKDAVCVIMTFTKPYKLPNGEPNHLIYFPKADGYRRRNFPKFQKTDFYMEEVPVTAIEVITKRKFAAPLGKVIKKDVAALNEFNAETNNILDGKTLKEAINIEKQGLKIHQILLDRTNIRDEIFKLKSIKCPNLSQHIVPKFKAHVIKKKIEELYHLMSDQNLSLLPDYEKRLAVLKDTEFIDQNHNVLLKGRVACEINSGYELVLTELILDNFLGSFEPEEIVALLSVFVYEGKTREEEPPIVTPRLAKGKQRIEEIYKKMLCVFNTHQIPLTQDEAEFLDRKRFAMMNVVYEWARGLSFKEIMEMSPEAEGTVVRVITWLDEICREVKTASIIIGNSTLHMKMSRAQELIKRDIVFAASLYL

B1: Ski3 (natural protein, UniProt P17883 1-1432, looked up)
chain: MSDIKQLLKEAKQELTNRDYEETIEISEKVLKLDPDNYFAHIFLGKALSSLPASNNVSSNRNLERATNHYVSAAKLVPDNLLAWKGLFLLFRTTEVVPDILSYDEYFDLCGQYADALLKQEQSQVELINDIKLLKKTHPDCQKAFYQHLKPGSLMAETIGRHLSTPQDALLNLIKILSNIETTEIGKTLSQNRLKLKASDPDYQIKLNSFSWEIIKNSEIDQLYNQLVNILADDQKRSEIENQWLEYRIKVLKSMPLDVKKDFFTKVKEMVEDMVLVNHQSLLAWQKYFEWTDYEDLDNMDAPLIIKYFKKFPKDPLAMILYSWLSSKLSKYDIKSLESANKPPEGHKKTEKETDIKDVDETNEDEVKDRVEDEVKDRVEDEVKDQDEEAKEDEEEDLDDIEIGLLEEEVVTVLTENIVKCKNNILAHRILCQYYLLTKEYEAALPYIKNGISLIAYNIKDLGVHLPLTKREFSLDLATVYTYVDAPKDHNAALKLYDNILSGDFSNIQAKMGKGIIFIERKNWKDAMTLLTQVHEQSPNNLEVLSELSWSKAHMGYMDEALAGLDTVIKGIKGMDLRSIDFRALNLWRQAKVYIMKHASINDAKQENVKCAFKLLIQSIKILDTFAPGFSTLGDIYCHYYKDHLRAFKCYFKAFDLDAGDYTAAKYITETYASKPNWQAASSIASRLIKGEKAKAELRSNNWPFRVVGIAHLEKQEESDSIEWFQSALRVDPNDVESWVGLGQAYHACGRIEASIKVFDKAIQLRPSHTFAQYFKAISLCDVGEYLESLDILEKVCQEAATEESFQIGLVEVLMRCSLDLYSQGFLLKSVSIAKDTIERIKIIISELKCENQQVWIYLSQVLRLFIWIESKVDTLPVESLVSIFENSQFSGSEEIDSVDNIKIDTLLDSTTDDNVSIACKFLILASKYSVSDQKFTDIAGTVRASYWYNIGISELTAFITLKEPQYRDAAIFAFKKSIQLQSNTSETWIGLGIATMDINFRVSQHCFIKATALEPKATNTWFNLAMLGLKKKDTEFAQQVLNKLQSLAPQDSSPWLGMALILEEQGDIIGSSKLFAHSFILSNGRSKAAQFMYAKNVLENHINNGDDERDIETVEKLTTASIALEQFFKKSPDSQFALQCALLTLERLHHYENANELANRLIGILEKKFEKTQDERELFNFAIIKGQFARIHLGLGNFELSIENADLSQGIISESSDEKSMKTKISNHICLGLSYFFLNDFDQTLNQFQELLSISKDSKHLVVLIAKVLYDVGESDTKEIALQELTEYIATSGADLLVTLTIAAMSILDDKREDLSIILEELKALPLSKQIIDKHKDAPYLIEEITKRLYRNDTGKQVWQRSAYFFPNNLKVWERLDKNIQRRIASNGQNKVTAEEMSKLYCESKNLRSIQRGMFLCPWNVTAVKALNECF

Experiments:
Test in all cases: native MS
Ski2 = molecular target: T1, Ski2
Ski3 = molecular target: B1
native MS = molecular target: the molecule itself

Binder | stoichiometry N (Ski2) | stoichiometry N (Ski3) | stoichiometry N (native MS)
Ski8 (natural protein, UniProt Q02793 1-397, looked up) MSKVFIATANAGKAHDADIFSVSACNSFTVSCSGDGYLKVWDNKLLDNENPKDKSYSHFVHKSGLHHVDVLQAIERDAFELCLVATTSFSGDLLFYRITREDETKKVIFEKLDLLDSDMKKHSFWALKWGASNDRLLSHRLVATDVKGTTYIWKFHPFADESNSLTLNWSPTLELQGTVESPMTPSQFATSVDISERGLIATGFNNGTVQISELSTLRPLYNFESQHSMINNSNSIRSVKFSPQGSLLAIAHDSNSFGCITLYETEFGERIGSLSVPTHSSQASLGEFAHSSWVMSLSFNDSGETLCSAGWDGKLRFWDVKTKERITTLNMHCDDIEIEEDILAVDEHGDSLAEPGVFDVKFLKKGWRSGMGADLNESLCCVCLDRSIRWFREAGGK | 2 | 2 | 
B1 | 1 |  | 
Ctf4 (natural protein, UniProt Q01454 1-927, looked up) MVSVIDKLVFDFGGKTLVSLAPDNNTLCVANKNGLTKILKTNNPEEEPETLDSSKLVSSIKCYSNSHFLMTTMQGDALRYNIDSSQEELLARFALPLRDCCVIHSGKMAVFGGDDLELILLELDDETHKKHAIKIDEQVSQISYNSQMNILAVSMINGKVQIFSLTSTIPNKVHELNDYIVANSYDDTHRDKILSNMMDDIDKDNDNDLSETADPDENNVADPEFCAANRICTRVAWHPKGLHFALPCADDTVKIFSIKGYSLQKTLSTNLSSTKAHFIDLQFDPLRGTYIAAVDLNNKLTVWNWETSEIHYTREFKRKITNIAWKIQADSKTLDLVLGTWSGSIAIVQNLAESVVSNIPDQSVAESSTKHGLFVDSESDLENLEGNDDINKSDKLFSDITQEANAEDVFTQTHDGPSGLSEKRKYNFEDEEDFIDDDDGAGYISGKKPHNEHSYSRVHKTHSFPISLANTGKFRYMPFSPAGTPFGFTDRRYLTMNEVGYVSTVKNSEQYSITVSFFDVGRFREYHFEDLFGYDLCFLNEKGTLFGQSKTGQIQYRPHDSIHSNWTKIIPLQAGERITSVAATPVRVIVGTSLGYFRSFNQFGVPFAVEKTSPIVALTAQNYRVFSVHYSQFHGLSYSLSELGTSSKRYYKRECPLPMSLPNINSDMKKDANLDYYNFNPMGIKSLFFSSYGDPCIFGSDNTLLLLSKWRSPEESKWLPILDSNMEIWKMSGGKETTDIHVWPLALAYDTLNCILVKGKHIWPEFPLPLPSEMEIRMPVFVKSKLLEENKAILNKKNEIGADTEAEEGEEDKEIQIPVSMAAEEEYLRSKVLSELLTDTLENDGEMYGNENEVLAALNGAYDKALLRLFASACSDQNVEKALSLAHELKQDRALTAAVKISERAELPSLVKKINNIREARYEQQLK |  |  | 3
